FireProtDB (doi:10.1021/bi011146t)
Where “and” joins values, the source holds several entries; their conditions need not be identical. Equal values may be shown once.

Details: Archaeoglobus fulgidus (strain ATCC 49558 / DSM 4304 / JCM 9628 / NBRC 100126 / VC-16), pH 7.5, CD, sodium phosphate 20 mM, reversible: no, whole UniProt chain shown

B1: wild type, O28558 (protein)
chain: MLDMPIDPVYYQLAEYFDSLPKFDQFSSAREYREAINRIYEERNRQLSQHERVERVEDRTIKGRNGDIRVRVYQQKPDSPVLVYYHGGGFVICSIESHDALCRRIARLSNSTVVSVDYRLAPEHKFPAAVYDCYDATKWVAENAEELRIDPSKIFVGGDSAGGNLAAAVSIMARDSGEDFIKHQILIYPVVNFVAPTPSLLEFGEGLWILDQKIMSWFSEQYFSREEDKFNPLASVIFADLENLPPALIITAEYDPLRDEGEVFGQMLRRAGVEASIVRYRGVLHGFINYYPVLKAARDAINQIAALLVFD
Question: With B1 as the protein, how does the denaturant m value (20 °C, Urea) read?
Answer: Its denaturant m value is 1.65 kcal/mol/M.

Question: And the “denaturant midpoint (higher = more stable)” value (20 °C, Urea)?
Answer: Its value is 7.1 M.

Question: And the unfolding free energy (20 °C, Urea)?
Answer: The unfolding free energy was 11.7 kcal/mol.

Question: What about the “unfolding enthalpy (van 't Hoff)” value (Thermal) of the same protein?
Answer: Its value is 103 kcal/mol and 95.6 kcal/mol and 90.8 kcal/mol.
